Data: article PMC7065273 (Molecular cell, 2019)

Molecular target: His6-FLAG-tagged U2AF2 (amino acids 367-475), purified from E. coli (UniProt P26368 367-475)
Test: co-IP

His6-FLAG-tagged U2AF2 (amino acids 367-475), purified from E. coli, sequence (P26368 367-475): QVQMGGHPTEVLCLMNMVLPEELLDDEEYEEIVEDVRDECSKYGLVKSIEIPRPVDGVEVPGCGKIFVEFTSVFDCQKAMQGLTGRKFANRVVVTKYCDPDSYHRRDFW

Binder: APAAPGKPASAATVKRKRKSRWGPEEDKVELPPAEL (domain or fragment, UniProt Q8IWZ8 366-401, looked up) [GST-tagged SUGP1 (amino acids 366-401), purified from E. coli]
- binding result: binds
